In patent US20130023504A1, “Modulation of Prostaglandin/Cyclooxygenase Metabolic Pathways” (HUNTER-FLEMING LIMITED, priority 2006, published 2013):

Tested on: rat spinal cord motor neurones
Assay: Neurite growth of spinal cord motor neurones in primary culture (anti β-Tubulin, In Cell Analyzer)
Format: cell-based
Description: Rat spinal motor neurones were prepared according to the method described by Martinou et al., 1992 (Martinou J C, Martinou I, Kato AC Cholinergic differentiation factor (CDF/LIF) promotes survival of isolated rat embryonic motoneurons in vitro. Neuron. 1992 April; 8(4):737-44). Briefly, pregnant female Wistar rats of 15 days gestation, were killed by cervical dislocation and the foetuses were removed from the uterus. Their spinal cords were removed and placed in ice-cold medium of Leibovitz (L15, Invitrogen, 11415-049) containing 1% of bovine serum albuminutes (BSA fatty acid free, Eurobio, Les Ulis, France, GXXBSA01-65). Meninges were carefully removed.
The spinal motor neurones were dissociated by trypsinisation for 20 minutes at 37° C. (trypsin EDTA 10× Invitrogen 15400054) diluted in PBS without calcium and magnesium (Invitrogen 2007-03). The reaction was stopped by the addition of Dulbecco Modified Eagle's Media (DMEM, Invitrogen 21969-035) containing DNase I grade II (0.1 mg/ml Roche diagnostic 104159) and 10% foetal calf serum (FCS, Invitrogen 10270098). The suspension was then mechanically dissociated by 3 passages through a 10 ml pipette. Cells were then centrifuged at 580 g for 10 minutes at room temperature. The pellet of dissociated cells was re-suspended in L15 medium and the resulting suspension was enriched in motor neurones by centrifugation at 180×g for 10 minutes at room temperature on a layer of BSA solution (3.5%) in L15 medium. The supernatant was discarded and the pellet was re-suspended in L15 medium supplemented with DNase I (1%). Then the suspension was layered over a cushion of Optiprep (d: 1.06 g/ml; Abcys, Paris, France; 1030061) and centrifuged at 335×g for 15 minutes at room temperature. The upper phase, containing the purified motor neurones, was collected, re-suspended with L15 medium and centrifuged at 800×g for 10 minutes at room temperature. The cell pellet was finally resuspended in a defined culture medium consisting of neurobasal medium supplemented with 2% B27, 2 mM L-Glutamine and Penicillin 50 Ul/ml-Streptomycin 50 μg/ml. Viable cells were counted in a Neubauer cytometer using the trypan blue exclusion test (Sigma T8154) then plated at 30 000 cells/well in 96 well-plates (pre-coated with poly-1-lysine; Nunclon, Invitrogen P5899) and cultured at 37° C. in a humidified air (95%) CO2 (5%) atmosphere.
The culture medium was changed into a defined culture medium after a 12 hours incubation period following the conditions described below:
BDNF 50 ng/ml and 10 ng/ml (in 0.1% DMSO)
After 6 hours, 12 hours and 24 hours of incubation with, cells were fixed for 5 minutes in an ethanol/acetic acid solution (95%/5%) at −20° C. and rinsed 3 times in PBS.
Motor neurones and sensory neurones were labelled by monoclonal anti β-Tubulin antibody (Sigma T8660) diluted at 1:400 in incubation solution (PBS with 5% of FCS and 0.1% of saponin, Sigma S-7900). This antibody specifically labels neurone cell bodies and neurites.
After 2 hours of incubation, the cells were washed in PBS and incubated with Alexa Fluor 488 goat anti mouse IgG (Molecular Probes A11001) diluted at 1:300 in incubation solution to reveal the 8-Tubulin III antibodies.
Analysis of the total length of neurones labelled with anti β-Tubulin antibodies (neurones) were carried out using In Cell Analyzer 1000 3.2.Workstation software.
The results were expressed in percentage compared to the vehicle. Comparison of groups was carried out using the unpaired T test.

B1: BDNF: Brain derived nerve growth factor, a specific growth factor for motor neurones; reference compound (protein, UniProt P23560 19-247, looked up)
Neurotrophic factor BDNF …: APMKEANIRGQGGLAYPGVRTHGTLESVNGPKAGSRGLTSLADTFEHVIEELLDEDQKVRPNEENNKDADLYTSRVMLSSQVPLEPPLLFLLEEYKNYLDAANMSMRVRRHSDPARRGELSVCDSISEWVTAADKKTAVDMSGGTVTVLEKVPVSKGQLKQYFYETKCNPMGYTKEGCRGIDKRHWNSQCRTTQSYVRALTMDSKKRIGWRFIRIDTSCVCTLTIKRGR
In the case of B1, the “Neurites length per field, % Vehicle” value (10 ng/ml, 6 hours) is reported as 193%, the “Neurites length per field, Mean” value (10 ng/ml, 6 hours) is reported as 489.5 μm and the “Neurites length per field, % Vehicle” value (10 ng/ml, 12 hours) is reported as 173%. For the same molecule, the “Neurites length per field, Mean” value (10 ng/ml, 12 hours) was 731.3 μm, the “Neurites length per field, % Vehicle” value (10 ng/ml, 24 hours) was 170% and the “Neurites length per field, Mean” value (10 ng/ml, 24 hours) was 366.1 μm. The “Neurites length per field, % Vehicle” value (50 ng/ml, 6 hours) was 180%, the “Neurites length per field, Mean” value (50 ng/ml, 6 hours) was 457.2 μm and the “Neurites length per field, % Vehicle” value (50 ng/ml, 12 hours) was 152%. The “Neurites length per field, Mean” value (50 ng/ml, 12 hours) was 643.7 μm and the “Neurites length per field, Mean” value (50 ng/ml, 24 hours) was 293.6 μm.
